We go through 41 sequences from the nanobody polyreactivity screen of Harvey et al. (2022).

This data set can be described thus: yeast display, Sf9 membrane polyspecificity reagent, FACS + sequencing; frameworks hold sequencing errors. An outline of the steps:
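Sorting gates, low and high (top ~1%), were placed on anti-HA fluorescence to track expression and on streptavidin fluorescence to track reagent binding. A clone's polyreactivity label is taken from the gate it came out of. The reagent was 10% biotinylated, detergent-solubilized Sf9 membrane, applied for 1 hour at 4 °C to galactose-induced yeast display cells.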
Regarding “QVQLVESGGGLVQAGGSLRLSCAASGSTFFYYDMGWYRQAPGKERELVAAITSGGSTYYADSVKGLFTISRDNAKNTVYLHMNSLKPEDTAVYYCNAESYFWDFYDYDHWGQGTQVTVSS”, the “polyreactivity (PSR sort gate)” value is “low polyreactivity”.
Regarding “QVQLVESGGGLVQAGGSLRLSCAASGSTFGAYAMGWYRQAPGKERELVAVINSDGSTNYADSVKGRFTISRDNAKHTVYLQMNSLKPEDTAVYYCAKDRTSRGGVPRMNYWGQGTQVTVSS”, the “polyreactivity (PSR sort gate)” value is given as “low polyreactivity”.
For “QVQLVESGGGLVQAGGSLRLSCAASGSTFGAYTMGWYRQAPGKERELVAAISSDGSTYYADSVKGRFTISRDNAKNTVYLQMNSLKPEDTAVYYCNARYHFYGRADYSYYYLFDYWGQGTQVTVSS”, the “polyreactivity (PSR sort gate)” value was “low polyreactivity”.
“QVQLVESGGGLVQAGGSLRLSCAASGSTFGDYAMGWYRQAPGKERELVAAISVSGASTYYADSVKGRFTISRDNAKNTVYLQMNSLKPEDTAVYYCAATYDTIGDSWGQGTQVTVSS”: the “polyreactivity (PSR sort gate)” value is recorded as “low polyreactivity”.
Take “QVQLVESGGGLVQAGGSLRLSCAASGSTFGEYAMGWYRQAPGKERELVAVITWRDDSTYYADSVKGRFTISRDNAKNTVYLQMNSLKPEDTAVYYCNADIYQGNAGYIEVGTFGEYDYWGQGTQVTVSS”: the “polyreactivity (PSR sort gate)” value was “low polyreactivity”.
“QVQLVESGGGLVQAGGSLRLSCAASGSTFGFNAMGWYRPAPGKERELVAAINESGGDTYYADSVKGRFTISRDNAKNTVYLQMNSLKPEDTAVYYCAADEPSSVYGILVELEYWGQGTQVTVSS”: the “polyreactivity (PSR sort gate)” value is on record as “high polyreactivity”.
In the case of “QVQLVESGGGLVQAGGSLRLSCAASGSTFGFNAMGWYRQAPGKERELVAAISRSGTRTYYADSVKGRFTISRDNAKNTVYLQMNSLKPEDTAVYYCAADSTLSRYDYWGQGTQVTVSS”, the “polyreactivity (PSR sort gate)” value is given as “high polyreactivity”.
On to “QVQLVESGGGLVQAGGSLRLSCAASGSTFGFNPMGWYRQAPGKERELVAAITGSGGSTYYADSVKGRFTISRDNAKNTVYLQMNSLKPEDTAVYYCARETYGDYVHYDYWGQGTQVTVSS”, for which the “polyreactivity (PSR sort gate)” value is listed as “low polyreactivity”.
With “QVQLVESGGGLVQAGGSLRLSCAASGSTFGFYAMGGYRQAPGKERELVAVISSGGGTNYADSVKGRFTISRDNAKNTVYLQMNSLKPEDTAVYYCAASRFALSGGYDYWGQGTQVTVSS”, the “polyreactivity (PSR sort gate)” value is recorded as “low polyreactivity”.
In the case of “QVQLVESGGGLVQAGGSLRLSCAASGSTFGFYAMGWFRQAPGKERELVAAISSSGSTYYADSVKGRFTISRDNAKNTVYVQINRLKPEDTAVYYCYADYWRYISSYDYWGQGTQVTVSS”, the “polyreactivity (PSR sort gate)” value is on record as “low polyreactivity”.
As for “QVQLVESGGGLVQAGGSLRLSCAASGSTFGFYAMGWYRQAPGKERELVAVISSGDSTYYADSVKGRFTISRDNAKKTVYLQMNSLIPEDTAVDYCAKDALVIDGGGGYDYWGQGTQVTVSS”, the entry is “low polyreactivity”; as for “QVQLVESGGGLVQAGGSLRLSCAASGSTFGFYAMGWYRQAPGKERELVAVISSGGGTNYADSVKGRFTISRDNAKNTVYLQMNSLKPEDTAVYYCAASRFALSGGYDYWGQGTQVTVTS”, “low polyreactivity”; as for “QVQLVESGGGLVQAGGSLRLSCAASGSTFGGKAMGWYRQAPGKDREMVAAITGSGGRTFYADSVKGRFTISRDNAKNTVYLQMNSLKQEDTAVYSCAAYSYIYSVNYWGQVTQVTVSS”, “low polyreactivity”.
On to “QVQLVESGGGLVQAGGSLRLSCAASGSTFGGNAMGWYRQAPGKERELVAAISRSGTTTYYADSVKGRFTISRDNAKNTVYLQMNSLKPEDTAVYYCAADYVRSQYDYWGQGTQVTVSS”, for which the “polyreactivity (PSR sort gate)” value is reported as “high polyreactivity”.
As to “QVQLVESGGGLVQAGGSLRLSCAASGSTFGGNAMGWYRQAPGKERELVAAISSSGGSTYYADSVKGRFTISRDNAKNTVYLQMNSLKPEDTAVYSCAALYHWTYDYWGQGTQVTVSS”, the “polyreactivity (PSR sort gate)” value is listed as “low polyreactivity”.
Turning to “QVQLVESGGGLVQAGGSLRLSCAASGSTFGGNAMGWYRQAPGKERELVAAITVGGDSTYYADSVKGRFTISRDNAKNTVYLQMNSLKPEDTAVYYCAARHYWWYDYWGQGTQVTVSS”, the “polyreactivity (PSR sort gate)” value is listed as “low polyreactivity”.
As for “QVQLVESGGGLVQAGGSLRLSCAASGSTFGGNAMGWYRQAPGKERELVAVISKRGGSTYYADSVKGRFTISRDYAKNTVYLQMNSLKPEDTAVYYCAATYSRYWSPTYDYWGQGTQVTVSS”, the “polyreactivity (PSR sort gate)” value is recorded as “high polyreactivity”.
With “QVQLVESGGGLVQAGGSLRLSCAASGSTFGGNDMGWYRQAPGKERELVAAISSGTSTNYADSVKGRFTISRDNAKNTVYLQMNSLKPEDTAVYYCAAKWHVRGRGARYRYDYDYWGQGTQVTVSS”, the “polyreactivity (PSR sort gate)” value is recorded as “low polyreactivity”.
“QVQLVESGGGLVQAGGSLRLSCAASGSTFGGYAMGRYRQAPGKERELVAAISQSGTRTYYADSVKGRFTISRDNAKYTVYLQMNSLKPEDTAVYYCAARRLYYHPTLYYWGQGTQVTVSS”: the “polyreactivity (PSR sort gate)” value is recorded as “high polyreactivity”.
Regarding “QVQLVESGGGLVQAGGSLRLSCAASGSTFGGYAMGWYRLAPGKERELVAAISSSGTSTYYADSVKGRFTISRDNAKNTVYLQMNSLKPEDTAVYYCATDFSFFSRFDYWGQGTQVTVSS”, the “polyreactivity (PSR sort gate)” value is reported as “low polyreactivity”.
Regarding “QVQLVESGGGLVQAGGSLRLSCAASGSTFGGYAMGWYRQAPGKERELVASISGGTRTNYADSVKGRFTISRDNAKNSVYLQMNSLKPEDTAVYYCAAEVGLPTWYTLPVDDYDYWGQGTQVTVSS”, the “polyreactivity (PSR sort gate)” value is “low polyreactivity”.
As for “QVQLVESGGGLVQAGGSLRLSCAASGSTFGGYAMGWYRQAPGKERELVASISGGTRTNYADSVKGRFTISRDNAKNTVYLQMNSLKPEDTAVYYCAAEVGLPTWYTLPVDDYDYWGQGTQVTVSS”, the entry is “low polyreactivity”; as for “QVQLVESGGGLVQAGGSLRLSCAASGSTFGHNAMGWYRQAPGKERELVAAIDSGDGTTYADSVKGRFTISRDNAKNTVYFQMNSLKPEDTAVYYCAATTDRAEDDDNIGGYWGQGTQVTVSS”, “low polyreactivity”.
“QVQLVESGGGLVQAGGSLRLSCAASGSTFGHYTMGWYRQAPGKERELVAAITYSGGRTYYADSVKGRFTISRDNAKNTVYLQMNSLKPEDTAVYYCNAKSFRILDNFAYRVDYDYWGQGTQVTVSS”: the “polyreactivity (PSR sort gate)” value is on record as “low polyreactivity”.
In the case of “QVQLVESGGGLVQAGGSLRLSCAASGSTFGINAMGWSRQAPGKERELVAAINSGTRTYYADSVKGRFTISRDNAKNNVYLQMNSLKPEDTAVYYCAARGVVGASGYYYWGQGTQVTVSS”, the “polyreactivity (PSR sort gate)” value is “high polyreactivity”.
In the case of “QVQLVESGGGLVQAGGSLRLSCAASGSTFGINDMGRYRQAPGKERELVASITRRGGTTYYADSVKGRFTISRDNAKNTVYLHMNSLKPEDTAVYYCNKTYRYGTPLYDYWGQGTQVTVSS”, the “polyreactivity (PSR sort gate)” value is reported as “high polyreactivity”.
With “QVQLVESGGGLVQAGGSLRLSCAASGSTFGIYAMGWYRPAPGKDREMVAAISSGVDTYYADSVKGRVTISRDNAKNTVDIQMNSLKPEDPAVYYCAADQFQGNSGFEYWGQGTQVTVSS”, the “polyreactivity (PSR sort gate)” value was “low polyreactivity”.
“QVQLVESGGGLVQAGGSLRLSCAASGSTFGIYAMGWYRQAPGKERELVAAISSGGSTNYADSVKGRFTISRDNAKNTVYLQMNSLKPEDTAVYYCAVESVYEYGGYVDSAYDYWGQGTQLTVSS”: the “polyreactivity (PSR sort gate)” value was “low polyreactivity”.
The same measure for “QVQLVESGGGLVQAGGSLRLSCAASGSTFGIYAMGWYRQAPGKERELVAAITWRGSSTYYADSVKGRFTISRDNAKNTVYLQMNSLKPEDTAVYYCAAEDTFYEYYSWGQGTQVTVSS”: “high polyreactivity”.
In the case of “QVQLVESGGGLVQAGGSLRLSCAASGSTFGIYAMGWYRQAPGKERELVATITGRGGRTYYADSVKGRFTISRDNAKNTVYLQMNSLKQEDTAVYYCNAAYRGYYRYDYWGQGTQVTVSS”, the “polyreactivity (PSR sort gate)” value was “high polyreactivity”.
With “QVQLVESGGGLVQAGGSLRLSCAASGSTFGKYAMGWYRPAPGKERELVAAITNGGRTNYADSVKGRFTISRDNAMNTVYLQMNSLKPEDTAVYYCNKARYGTDDYDYWGQGTQVTVSS”, the “polyreactivity (PSR sort gate)” value was “low polyreactivity”.
In the case of “QVQLVESGGGLVQAGGSLRLSCAASGSTFGKYAMGWYRQAPGKEREFVAAITWSGGRTYYADSVKGRFTISRDNAKNTVYLQMNSLKPEDTAVDYCAALWAYYSRGYYWGQGTQVTVSW”, the “polyreactivity (PSR sort gate)” value is “high polyreactivity”.
As for “QVQLVESGGGLVQAGGSLRLSCAASGSTFGKYAMGWYRQAPGKERELVAAITNGGRTNFADSVKGRFTISRDNAKNTVYLQMNSLKPEDTAVYFCNKARYGTDDYEYWGQGTQVTVSS”, the entry is “low polyreactivity”; as for “QVQLVESGGGLVQAGGSLRLSCAASGSTFGLYAMGWYRQAPGKERELVAAIRWSGASTYYADSVKGRFTISRDNAKNTVYLQMNSLKPEDTAVYYCARRALGPRRGIRYDYWGQGTQVTVSS”, “high polyreactivity”.
Take “QVQLVESGGGLVQAGGSLRLSCAASGSTFGPNAMGWYRQAPGKERELVATISFRGGTTYYADSVKGRFTISRDNAKNTVYLQMNSLKPEDTAVYYCAVKVGYVRLLYHYYYWGQGTQVTVSS”: the “polyreactivity (PSR sort gate)” value is given as “high polyreactivity”.
“QVQLVESGGGLVQAGGSLRLSCAASGSTFGPNAMGWYRQAPGKERELVATISSGGSTYYADSVKGRFTISRDNAKNTVYLQMNSLKPEDTAVYYCNVLWLRSRRKYDYWGHGTQVTVSS”: the “polyreactivity (PSR sort gate)” value is reported as “low polyreactivity”.
For “QVQLVESGGGLVQAGGSLRLSCAASGSTFGPYAMGWYRPAPGKEMELVATITRNGGSTYYADSVKGRFTISRDNAKNTVYLQMNSLKPEDTAVYYCNAEGRWSSFTQRMDYWGQGTQVTVSS”, the “polyreactivity (PSR sort gate)” value was “low polyreactivity”.
For the sequence “QVQLVESGGGLVQAGGSLRLSCAASGSTFGPYAMGWYRPAPGKERELVAAIRSGGSTYYADSVKGRFTISRDNAKNTVYLQMNSLKPEDTAVYYCAAGGHHSYTYWIYYYWGQGTQVTVSS”, the “polyreactivity (PSR sort gate)” value is “low polyreactivity”.
For the sequence “QVQLVESGGGLVQAGGSLRLSCAASGSTFGPYAMGWYRQAPGKEREFVAGISKSTSSTYYADSVKGRFTISRDNAKNTVYLQMNSLKPEDTAVYYCAAQGGRNRGYRYYWGQGTQVTVSS”, the “polyreactivity (PSR sort gate)” value is “high polyreactivity”.
“QVQLVESGGGLVQAGGSLRLSCAASGSTFGPYAMGWYRQAPGKERELVATITRNGGSTYYADSVKGRFTISRDNAKNTVYLQMNSLKPEDTAVYYCNAEGRWSSFTQRMDYWGQGTQVTVSS”: the “polyreactivity (PSR sort gate)” value is listed as “low polyreactivity”.
As for “QVQLVESGGGLVQAGGSLRLSCAASGSTFGPYAMGWYRQAPGQERELVATITRNGGSTYYADSVKGRFTISRDNAKNTVYLQMNSLKPEDTAVYYCAARLYYEIYDYGAVRIGYDYWGQGTQVTVSS”, the entry is “low polyreactivity”.
